From patent US5543264

What was measured:
[1] = target: purified recombinant Ad2 proteinase (rEP) (human adenovirus type 2)
[2] = target: (Leu-Arg-Gly-Gly-NH)2-rhodamine
[3] = target: purified recombinant Ad2 proteinase (rEP) (human adenovirus type 2); remark: listed apart in the source

| Molecule | stimulation of the rate of substrate hydrolysis by rEP with pVIc peptide [1] [fold] | other results |
| --- | --- | --- |
| polyaspartic acid | 5 |  |
| polyglutamic acid | 8.9 |  |
| polylysine | < 1 |  |
| purified recombinant Ad2 proteinase (rEP) (enzyme) |  | rate of substrate hydrolysis, fluorescence assay (pmol substrate min^-1) [2]: 25.6 |
| GVQSLKRRRCF [Ad2 pVI-c peptide cofactor (11-amino acid carboxy terminus of pVI)] |  | activation of rEP, rate of hydrolysis of (Leu-Arg-Gly-Gly-NH)2-rhodamine [3]: 2.76 pmol/min |
